For assay [1], the target named is T1, human fibroblast activation protein (FAP) on WI-38 fibroblasts (human, UniProt Q12884 1-760).
T1 construct: FAP-expressing human WI-38 fibroblasts (ECACC)
Kind of assay: competitive FACS, WI-38 cells, Cy5-labeled peptide as competitor.

In assay [2] the target is Recombinant human FAP (R&D systems, #3715-SE) (human, UniProt Q12884 26-760). Kind of assay: cell-based or functional assay.
The target in assay [3] is T2, fibroblast activation protein (FAP) on FAP-expressing human WI-38 fibroblasts (human, UniProt Q12884 1-760).
T2 construct: also called human FAP
Description: competitive FACS, WI-38 cells, vs Cy5 tracer m3; C = pIC50 6.1-7.0.

For assay [4], the target named is T3, Recombinant human FAP (R&D systems, #3715-SE) (human, UniProt Q12884 26-760). Description: cell-based or functional assay. The source holds these as a separate data set.
For assay [5], the target named is T3, Recombinant human FAP (R&D systems, …). Kind of assay: SPR (Biacore T200), FAP captured on anti-FAP antibody, single cycle kinetics. (In general: SPR reads the build-up and loss of mass on a sensor chip optically.)

“And” between values parts separate entries of the source, which are not always exact repeats. Equal values may be shown once. Numbered stars: 1 amine (or outer) side, 2 acyl side, 3 side chain; on linkers, the order of the positions; unused ones are H or OH. Bridge positions count the residues as written; N and C are the ends. Square brackets hold non-standard residues; d marks the D form. * marks the point of attachment. tMeBn(DOTA-PP) = 1,3,5-trimethylbenzylidene, two thioethers to Cys, third CH2 bound to one N of piperazine whose other N bears DOTA, O=C(O)CN1CCN(CC(=O)O)CCN(CC(=O)N2CCN(Cc3cc(C[*:1])cc(C[*:2])c3)CC2)CCN(CC(=O)O)CC1; TBMB(SCH2CH2NH-DOTA) = O=C(O)CN1CCN(CC(=O)O)CCN(CC(=O)NCCSCc2cc(C[*:1])cc(C[*:2])c2)CCN(CC(=O)O)CC1; 3MeBn = 3-Methylbenzylidene (m-xylylene thioether bridge from α,α′-dibromo-m-xylene); N4Ac = 6-Carboxy-1,4,8,11-tetraazaundecane, an N4-chelator, NCCNCC(CNCCN)C(=O)*; DOTA = O=C(O)CN1CCN(CC(=O)O)CCN(CC(=O)*)CCN(CC(=O)O)CC1; Oic = O=C(O)[C@@H]1C[C@@H]2CCCC[C@@H]2N1; mXylylene = c1cc(C[*:1])cc(C[*:2])c1; NMeF = CN[C@@H](Cc1ccccc1)C(=O)O; Nle = CCCC[C@H](N)C(=O)O; Hexanoyl = CCCCCC(=O)*; AEEA = NCCOCCOCC(=O)O; Inp = O=C(O)C1CCNCC1; Ahx = NCCCCCC(=O)O; Sar = CNCC(=O)O

Results on twelve molecules are retold here after patent US20230212549A1 (3B PHARMACEUTICALS, published 2023).

Take N4Ac-[AEEA][Nle]CPPTEFC-OH (linker 3-9 via 3MeBn, also called 3BP-4228) [N4Ac-O2Oc-Nle-[Cys-(3MeBn)-Pro-Pro-Thr-Glu-Phe-Cys]-OH]: the “pIC50 Category (FACS)” value in assay [1] was no more than 6 pIC50.

B1: DOTA-Inp-[Cys(3MeBn)-Pro-Pro-Thr-Glu-Phe-Cys]-Asp-His-Nmf-Arg-Asp-NH2 (peptide)
peptide: {DOTA}-[Inp]CPPTEFCDH[NMeF]RD-NH2
modifications: linker 2-8 via mXylylene
SMILES: C[C@@H](O)[C@@H]1NC(=O)[C@@H]2CCCN2C(=O)[C@@H]2CCCN2C(=O)[C@@H](NC(=O)C2CCN(C(=O)CN3CCN(CC(=O)O)CCN(CC(=O)O)CCN(CC(=O)O)CC3)CC2)CSCc2cccc(c2)CSC[C@@H](C(=O)N[C@@H](CC(=O)O)C(=O)N[C@@H](Cc2c[nH]cn2)C(=O)N(C)[C@@H](Cc2ccccc2)C(=O)N[C@@H](CCCNC(=N)N)C(=O)N[C@@H](CC(=O)O)C(N)=O)NC(=O)[C@H](Cc2ccccc2)NC(=O)[C@H](CCC(=O)O)NC1=O
notes: also called 3BP-3265
Consider B1, for which the “pIC50 Category (Activity)” value in assay [2] is 6.1 pIC50 and 7 pIC50. The “pIC50 Category (FACS)” value in assay [3] was 6.1 pIC50 and 7 pIC50.

B2: Ac-Met-[Cys(3MeBn)-Pro-Pro-Thr-Glu-Phe-Cys]-Asp-His-Phe-NH2 (peptide)
peptide: Ac-MCPPTEFCDHF-NH2
modifications: linker 2-8 via mXylylene
SMILES: CSCC[C@H](NC(C)=O)C(=O)N[C@H]1CSCc2cccc(c2)CSC[C@@H](C(=O)N[C@@H](CC(=O)O)C(=O)N[C@@H](Cc2c[nH]cn2)C(=O)N[C@@H](Cc2ccccc2)C(N)=O)NC(=O)[C@H](Cc2ccccc2)NC(=O)[C@H](CCC(=O)O)NC(=O)[C@H]([C@@H](C)O)NC(=O)[C@@H]2CCCN2C(=O)[C@@H]2CCCN2C1=O
notes: also called 3BP-3199
Take B2: in assay [2], the “pIC50 Category (Activity)” value was 7.1 pIC50 and 8 pIC50. Further, in assay [3], the “pIC50 Category (FACS)” value was 6.1 pIC50 and 7 pIC50.

B3: Hex-[Cys(tMeBn(DOTA-AET))-Nmg-Pro-Thr-Gln-Phe-Cys]-NH2 (peptide)
peptide: Hexanoyl-C[Sar]PTQFC-NH2
modifications: linker 1-7 via TBMB(SCH2CH2NH-DOTA)
SMILES: CCCCCC(=O)N[C@H]1CSCc2cc(CSCCNC(=O)CN3CCN(CC(=O)O)CCN(CC(=O)O)CCN(CC(=O)O)CC3)cc(c2)CSC[C@@H](C(N)=O)NC(=O)[C@H](Cc2ccccc2)NC(=O)[C@H](CCC(N)=O)NC(=O)[C@H]([C@@H](C)O)NC(=O)[C@@H]2CCCN2C(=O)CN(C)C1=O
notes: also called 3BP-3744
As for B3, in assay [4], the “pIC50 Category (Activity)” value was greater than 8 pIC50. Further, in assay [1], the “pIC50 Category (FACS)” value is greater than 8 pIC50.

B4: Hex-[Cys(tMeBn(DOTA-PP))-Nmg-Pro-Thr-Gln-Phe-Cys]-OH (peptide)
peptide: Hexanoyl-C[Sar]PTQFC-OH
modifications: bridge 1-7; not fully specified (residue 1, bridges); printed as Hex-[Cys(tMeBn(DOTA-PP))-Nmg-Pro-Thr-Gln-Phe-Cys]-OH
notes: also called 3BP-3771
In the case of B4, the “pIC50 Category (Activity)” value in assay [4] is greater than 8 pIC50. The “pIC50 Category (FACS)” value in assay [1] is greater than 8 pIC50.

B5: Hex-[Cys-(tMeBn(DOTA-AET))-Pro-Pro-Thr-Glu-Phe-Cys]-OH (peptide)
peptide: Hexanoyl-CPPTEFC-OH
modifications: linker 1-7 via TBMB(SCH2CH2NH-DOTA)
SMILES: CCCCCC(=O)N[C@H]1CSCc2cc(CSCCNC(=O)CN3CCN(CC(=O)O)CCN(CC(=O)O)CCN(CC(=O)O)CC3)cc(c2)CSC[C@@H](C(=O)O)NC(=O)[C@H](Cc2ccccc2)NC(=O)[C@H](CCC(=O)O)NC(=O)[C@H]([C@@H](C)O)NC(=O)[C@@H]2CCCN2C(=O)[C@@H]2CCCN2C1=O
notes: also called 3BP-4250
With B5, in assay [1], the “pIC50 Category (FACS)” value is greater than 8 pIC50. The “pKD Category” value in assay [5] was greater than 8 pKD.

B6: Ac-Met-[Cys(3MeBn)-Pro-Oic-Thr-Glu-Phe-Cys]-Asp-His-Phe-Arg-Asp-NH2 (peptide)
peptide: Ac-MCP[Oic]TEFCDHFRD-NH2
modifications: linker 2-8 via mXylylene
SMILES: CSCC[C@H](NC(C)=O)C(=O)N[C@H]1CSCc2cccc(c2)CSC[C@@H](C(=O)N[C@@H](CC(=O)O)C(=O)N[C@@H](Cc2c[nH]cn2)C(=O)N[C@@H](Cc2ccccc2)C(=O)N[C@@H](CCCNC(=N)N)C(=O)N[C@@H](CC(=O)O)C(N)=O)NC(=O)[C@H](Cc2ccccc2)NC(=O)[C@H](CCC(=O)O)NC(=O)[C@H]([C@@H](C)O)NC(=O)[C@@H]2C[C@@H]3CCCC[C@@H]3N2C(=O)[C@@H]2CCCN2C1=O
notes: also called 3BP-3217
Take B6: the “pIC50 Category (Activity)” value in assay [2] was 6.1 pIC50 and 7 pIC50. The “pIC50 Category (FACS)” value in assay [3] is 6.1 pIC50 and 7 pIC50.

B7: DOTA-O2Oc-[Cys(3MeBn)-Pro-Pro-Thr-Glu-Phe-Cys]-Asp-His-Nmf-Arg-Asp-NH2 (peptide)
peptide: {DOTA}-[AEEA]CPPTEFCDH[NMeF]RD-NH2
modifications: linker 2-8 via mXylylene
SMILES: C[C@@H](O)[C@@H]1NC(=O)[C@@H]2CCCN2C(=O)[C@@H]2CCCN2C(=O)[C@@H](NC(=O)COCCOCCNC(=O)CN2CCN(CC(=O)O)CCN(CC(=O)O)CCN(CC(=O)O)CC2)CSCc2cccc(c2)CSC[C@@H](C(=O)N[C@@H](CC(=O)O)C(=O)N[C@@H](Cc2c[nH]cn2)C(=O)N(C)[C@@H](Cc2ccccc2)C(=O)N[C@@H](CCCNC(=N)N)C(=O)N[C@@H](CC(=O)O)C(N)=O)NC(=O)[C@H](Cc2ccccc2)NC(=O)[C@H](CCC(=O)O)NC1=O
notes: also called 3BP-3267
For the molecule B7, in assay [2], the “pIC50 Category (Activity)” value was 6.1 pIC50 and 7 pIC50. The “pIC50 Category (FACS)” value in assay [3] was 6.1 pIC50 and 7 pIC50. As for Hexanoyl-CPPTQFCD-NH2 (linker 1-7 via tMeBn(H-O2Oc-PP), also called 3BP-3967) [Hex-[Cys-(tMeBn(H-O2Oc-PP))-Pro-Pro-Thr-Gln-Phe-Cys]-Asp-NH2], in assay [4], the “pIC50 Category (Activity)” value was greater than 8 pIC50. The “pIC50 Category (FACS)” value in assay [1] is greater than 8 pIC50.

B8: DOTA-Ahx-[Cys(3MeBn)-Pro-Pro-Thr-Glu-Phe-Cys]-Asp-His-Nmf-Arg-Asp-NH2 (peptide)
peptide: {DOTA}-[Ahx]CPPTEFCDH[NMeF]RD-NH2
modifications: linker 2-8 via mXylylene
SMILES: C[C@@H](O)[C@@H]1NC(=O)[C@@H]2CCCN2C(=O)[C@@H]2CCCN2C(=O)[C@@H](NC(=O)CCCCCNC(=O)CN2CCN(CC(=O)O)CCN(CC(=O)O)CCN(CC(=O)O)CC2)CSCc2cccc(c2)CSC[C@@H](C(=O)N[C@@H](CC(=O)O)C(=O)N[C@@H](Cc2c[nH]cn2)C(=O)N(C)[C@@H](Cc2ccccc2)C(=O)N[C@@H](CCCNC(=N)N)C(=O)N[C@@H](CC(=O)O)C(N)=O)NC(=O)[C@H](Cc2ccccc2)NC(=O)[C@H](CCC(=O)O)NC1=O
notes: also called 3BP-3266
Take B8: the “pIC50 Category (Activity)” value in assay [2] was 6.1 pIC50 and 7 pIC50. Also, the “pIC50 Category (FACS)” value in assay [3] was 6.1 pIC50 and 7 pIC50.

B9: Ac-Met-[Cys(3MeBn)-Oic-Pro-Thr-Glu-Phe-Cys]-Asp-His-Phe-Arg-Asp-NH2 (peptide)
peptide: Ac-MC[Oic]PTEFCDHFRD-NH2
modifications: linker 2-8 via mXylylene
SMILES: CSCC[C@H](NC(C)=O)C(=O)N[C@H]1CSCc2cccc(c2)CSC[C@@H](C(=O)N[C@@H](CC(=O)O)C(=O)N[C@@H](Cc2c[nH]cn2)C(=O)N[C@@H](Cc2ccccc2)C(=O)N[C@@H](CCCNC(=N)N)C(=O)N[C@@H](CC(=O)O)C(N)=O)NC(=O)[C@H](Cc2ccccc2)NC(=O)[C@H](CCC(=O)O)NC(=O)[C@H]([C@@H](C)O)NC(=O)[C@@H]2CCCN2C(=O)[C@@H]2C[C@@H]3CCCC[C@@H]3N2C1=O
notes: also called 3BP-3216
Turning to B9, in assay [2], the “pIC50 Category (Activity)” value was 6.1 pIC50 and 7 pIC50. For the same molecule, the “pIC50 Category (FACS)” value in assay [3] is 6.1 pIC50 and 7 pIC50.

B10: Hex-[Cys(tMeBn(DOTA-PP))-Pro-Pro-Ala-Ala-Phe-Cys]-Asp-NH2 (peptide)
peptide: Hexanoyl-CPPAAFCD-NH2
modifications: linker 1-7 via tMeBn(DOTA-PP)
SMILES: CCCCCC(=O)N[C@H]1CSCc2cc(cc(CN3CCN(C(=O)CN4CCN(CC(=O)O)CCN(CC(=O)O)CCN(CC(=O)O)CC4)CC3)c2)CSC[C@@H](C(=O)N[C@@H](CC(=O)O)C(N)=O)NC(=O)[C@H](Cc2ccccc2)NC(=O)[C@H](C)NC(=O)[C@H](C)NC(=O)[C@@H]2CCCN2C(=O)[C@@H]2CCCN2C1=O
notes: also called 3BP-3746
In the case of B10, in assay [1], the “pIC50 Category (FACS)” value was no more than 6 pIC50.
